Measurements taken from paper PMC11931385, “Structural and functional analysis of cancer-associated missense variants in the retinoblastoma protein pocket domain” (The Journal of Biological Chemistry, 2025).
Changes are numbered by the printed parent chain. Numbers in names are those of the source. No end group written: not given here. TMR = tetramethyl rhodamine dye

B1: TMR-E2F1^TD, peptide of the E2F1 transactivation domain (peptide)
peptide: {TMR}-GEGIRDLFDCDFGDLTPLD
notes: also called E2F^TD; source: synthetic peptide, bought: GenScript
B2: TMR-E7^LxCxE, LxCxE peptide of the E7 oncoprotein from HPV (peptide)
peptide: DLYCYEQLN
modifications: also: TMR label, position not given here
notes: source: synthetic peptide, bought: GenScript

Tests used:
Assay in all cases: fluorescence polarisation; 25 °C; unlabeled Rb^P titrated against 1.5 nM TMR-E2F1^TD or 7.5 nM TMR-E7^LxCxE; 25 mM Tris pH 8.0, 200 mM NaCl, 1 mM DTT, 0.1% Tween-20; 2 min incubation; quadratic fit; apparent Kd for the variants, Kd for WT
Conditions in all cases: both partners purified
[1] = target: T1, Rb^P A525G (human, UniProt P06400 380-788, A525G)
T1 construct: also called variant 20
T1 sequence (looked up): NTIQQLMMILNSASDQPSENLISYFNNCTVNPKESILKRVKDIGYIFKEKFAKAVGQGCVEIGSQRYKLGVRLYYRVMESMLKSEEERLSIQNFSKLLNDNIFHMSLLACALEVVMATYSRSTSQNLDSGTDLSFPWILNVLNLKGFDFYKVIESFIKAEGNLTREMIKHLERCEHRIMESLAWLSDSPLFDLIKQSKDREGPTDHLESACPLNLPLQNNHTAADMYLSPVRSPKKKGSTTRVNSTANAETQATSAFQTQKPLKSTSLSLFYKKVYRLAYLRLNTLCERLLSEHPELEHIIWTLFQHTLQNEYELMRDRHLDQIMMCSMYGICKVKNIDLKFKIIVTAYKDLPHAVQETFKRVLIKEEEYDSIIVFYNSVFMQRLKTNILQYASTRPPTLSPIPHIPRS

[2] = target: T2, Rb^P R556Q (human, UniProt P06400 380-788, R556Q)
T2 construct: also called variant 30
T2 sequence (looked up): T1 sequence (looked up) with G146A, R177Q

[3] = target: T3, Rb^P M546I (human, UniProt P06400 380-788, M546I)
T3 construct: also called variant 25
T3 sequence (looked up): T1 sequence (looked up) with G146A, M167I

[4] = target: T4, Rb^P S612P (human, UniProt P06400 380-788, S612P)
T4 construct: also called variant 39
T4 sequence (looked up): T1 sequence (looked up) with G146A, S233P

[5] = target: T5, Rb^P R656Q (human, UniProt P06400 380-788, R656Q)
T5 construct: also called variant 48
T5 sequence (looked up): T1 sequence (looked up) with G146A, R277Q

Binder	Kd [1] [nM]	Kd [2] [nM]	Kd [3] [nM]	Kd [4] [nM]	Kd [5] [nM]
B1	36	22	13	32	183
B2	12	5	7	7	6
